Reference: US12662540B2, “Compositions and methods for inhibition of MICA/B shedding” (DANA-FARBER CANCER INSTITUTE, INC., priority 2017, dated 2026)

Tests used:
[1] = system: RMA-S cell lines; assay: 51Cr release assay with murine NK cells against RMA-S cell lines; format: cell-based, mouse
Procedure: Murine NK cells were isolated from the spleen of C57BL/6 Rag1^−/− mice. These cells were enriched by negative selection using a Mouse NK Cell Isolation Kit (130-096-892, Miltenyi Biotech). Cells were then incubated with PE-conjugated anti-NK1.1 and Pacific Blue-conjugated anti-CD3 (Biolegend), and NK cells were sorted using a BD FACS Aria. Purity after sorting was ˜99%. NK cells used for cytotoxicity assays were isolated from mice that had received an intraperitoneal injection of 200 μg Poly(I:C) (InvivoGen) 1 day prior to NK cell isolation.
Target cells were labeled for 1 hour with 100 μCi of ^51[Cr] per 2×10^6 cells in 0.2 ml of media. Subsequently, cells were washed and plated in V-bottom 96-wells plates (5,000 target cells per well). To determine the experimental release, NK cells were added in an equal volume, but at different ratios. […]
For experiments shown in FIGS. 1E, 10, and 13E antibodies were added at the time of the killing assay. […] At the end of the incubation period, plates were centrifuged (2000 rpm, 5 minutes), part of the supernatant was collected, mixed with scintillation fluid, and radioactivity was quantified using a MicroBeta2 reader (Perkin Elmer). Specific killing was calculated using the following formula: 100×(Experimental release−Spontaneous release)/(Maximum release−Spontaneous release).

[2] = system: B16F10-MICA cells; assay: B16F10 metastasis model in immunocompetent mice; format: in vivo, C57BL/6 mice; conditions: anti-asGM1, anti-NK1.1 or anti-CD8β
Procedure: The B16F10 cells were transduced with the luciferase-based lentiviral vector to express MICA. B16F10-MICA cells (5×10^5) were injected intravenously into C57BL/6 mice through the tail vein. Fewer tumor cells (4×10^5) were injected into NK cell-deficient mice given that the absence of NK cells results in a very large number of metastases. 7C6 or isotype control antibodies (MPC-11 or C1184, BioXcell, which have mIgG2b and mIgG2a isotypes, respectively) were administered intraperitoneally on days 1, 2, 7 and 10 at a dose of 200 μg per mouse. Antibody blockade and depletion were performed as described previously (24). For antibody-based depletion of CD8 T cells or NK cells, 100 μg per mouse of anti-CD8 (5358, BioXcell), anti-NK1.1 (PK136, BioXcell), and anti-asialo(as)GM1 (Wako Chemicals) were given on days −1, 0, and 7. For antibody blockade, anti-NKG2D (HMG2D, BioXcell) or control IgG (MOPC-21) were given at 200 μg per mouse on days −1, 0, 5, 7 and 10. Blood samples were collected at multiple time points by retro-orbital bleeding under isoflurane anesthesia. Mice were euthanized by CO2 inhalation, lungs were perfused with PBS and fixed in formalin solution, and the number of superficial metastases was counted under a stereomicroscope. Histology was performed by the Rodent Histopathology Core of the Dana-Farber/Harvard Cancer Center using lungs that had not been perfused with PBS.
Macrophages were depleted by intravenous injection of 0.2 ml clodronate liposomes (Encapsula NanoSciences LLC). In the humanized and B16F10-MICA metastasis models, 0.2 ml of clodronate liposomes or control liposomes were injected i.v. (on the same day of tumor cell inoculation and then once weekly).

[3] = system: murine tumor cell lines (B16F10, CT26, Neuro-2a) expressing full-length MICA or MICB; assay: Shed and surface MICA/MICB in murine tumor cell lines transduced with full-length MICA or MICB; format: cell-based, mouse; conditions: B16F10-MICA cells, 24 hours
Description: B16F10, CT26, Neuro-2a, EL4 and RMA-S cell lines were transduced with lentiviral vector pHAGE-CMV-fullEF1a. MICA (allele 009) cDNA or other inserts were placed between NotI and BamHI cloning sites, 3′ to the EF1α promoter and 5′ to the IRES. ZsGreen or luciferase cDNAs were cloned 3′ to the IRES as fluorescence or bioluminescence reporters, respectively. The vector with the ZsGreen reporter was used to compare expression of cDNAs encoding full length MICA, full-length MICB and secreted MICA (Neuro-2a, RMA-S and/or B16F10 cell lines). CT26, EL4 and B16F10 cell lines were transduced with the vector that supported expression of the luciferase reporter. […]
Tumor cells (5×10^4 or 1×10^5 per well, depending on the cell line) were cultured for 24 to 72 hours in 96-well plates (flat-bottom plates for adherent cell lines, U-bottom plates for suspension cell lines). […] MICA or control antibodies were added at different concentrations, and shed MICA/B was then detected in supernatants by ELISA using the Human MICA ELISA kit (Ab59569, Abcam) or Human MICB DuoSet ELISA kit (DY1599, R&D Systems), using the procedures recommended by the manufacturers. […]
MICA and MICB were detected on the cell surface by the PE-conjugated anti-MICA/B antibody (clone 6D4, 320906, Biolegend). […] All samples were acquired in a BD LSR Fortessa flow cytometer, and analyzed by FlowJo V10 software.

[4] = system: CT26-MICA; assay: CT26 metastasis model; format: in vivo, Balb/c mice; conditions: antibody days 1, 2, 7, 14; count day 21
Procedure: (§1) Balb/c wild type mice were injected intravenously with 1×10^6 CT26-MICA, and treated with 7C6-mIgG2b or MPC-11 (isotype) administered intraperitoneally on days 1, 2, 7, and 14. Euthanasia was performed on day 21, followed by lung perfusion with 30% Indian ink through the trachea and fixation in Fekete's fixative. That procedure stains the lungs in black, while the metastases remain white, enabling counting of metastases under a stereomicroscope (24).
as §1, with “stereomicroscope.” for “stereomicroscope (24).”

B1: 7C6-mIgG2b: 7C6 with parental murine IgG2b Fc (antibody)
VH: QIQLVQSGPELKKPGETVKVSCKASGYMFTNYAMNWVKQAPEKGLKWMGWINTHTGDPTYADDFKGRIAFSLETSASTAYLQINNLKNEDTATYFCVRTYGNYAMDYWGQGTSVTVSSAKTTAPSVYPLAPVCGDTTGSSVTLGCLVKGYFPEPVTLTWNSGSLSSGVHTFPAVLQSDLYTLSSSVTVTSS
VL: DIQMTQTTSSLSASLGDRVTISCSASQDISNYLNWYQQKPDGTVKLLIYDTSILHLGVPSRFSGSGSGTDYSLTISNLEPEDIATYYCQQYSKFPRTFGGGTTLEIK
murine NK cell-mediated cytotoxicity against tumor cells expressing full-length MICA ([1]; full-length MICA): enhances NK cell-mediated cytotoxicity
murine NK cell-mediated cytotoxicity against tumor cells that release MICA by exocytosis ([1]; secreted MICA): not against tumor cells that release MICA by exocytosis
therapeutic activity against lung metastases after NK cell or CD8 T cell depletion [2]: NK cell (anti-asGM1 or anti-NK1.1) but not CD8 T cell (anti-CD8β) depletion abrogated the therapeutic activity
ability to inhibit MICA shedding, 7C6 with distinct Fc regions [3]: does not alter the ability of MICA antibody to inhibit MICA shedding
activity against CT26-MICA lung metastases [4]: has activity against CT26-MICA tumor cells
